Tested on: engineered chimeric receptor SEQ ID NO: 33 and its mutants (human α7-nAChR ligand binding domain / human GlyRα1 ion pore domain) in Lenti-X 293T cells
Assay: YFP fluorescence quenching anion reporter plate reader assay (percent quench, EC50)
Assay type: cell-based
Conditions: for YFP fluorescence quenching using CNL001 (percent quench): receptor named in row; for YFP fluorescence quenching using Varenicline, 3 nM var: ligand Varenicline 3 nM; for YFP fluorescence quenching using Varenicline, 30 nM var: ligand Varenicline 30 nM; for YFP fluorescence quenching using Varenicline, 300 nM var: ligand Varenicline 300 nM; for YFP fluorescence quenching using Varenicline, 500 nM var: ligand Varenicline 500 nM; for YFP fluorescence quenching using Varenicline, 1 uM var: ligand Varenicline 1 uM
From the text: To screen these mutant LGICs for those having novel response profiles to ligands, an anion reporter assay was developed to assess the function of the LGICs in a high throughput format. In this assay, cells expressing a YFP reporter whose fluorescence is quenched in the presence of anion are transfected with DNA encoding the channel of interest. Upon exposure to ligand, channels that are activated will flux anion, resulting in a dose-dependent quench of the YFP that can be detected on a plate reader. The greater the quench signal (i.e., the more positive the value), the higher the ligand activity on the receptor is.
Lenti-X 293T cells (LX293T, Clontech) were maintained in DMEM containing 10% FBS and 1% penicillin/streptomycin (Invitrogen). […] Two days before assay, cells were split at a density of 20,000 cells/well in a 96-well tissue culture plate coated with poly-d lysine (Thermo Scientific). The next day, the cells were transiently transfected with 0.1 μg of DNA per well using standard Fugene protocol (Promega). On the day of assay, cells were washed 2 times in 1X extracellular solution (1X ECS: 140 mM NaCl, 5 mM KCl, 1 mM MgCl2, 2 mM CaCl2, 10 mM HEPES, 10 mM glucose, pH 7.2, mOsms 300). After the last wash, 100 μL of 1X ECS was added to the wells and the plate was incubated at 37° C. for 30 min. While incubating the plate, the drugs were diluted to a 2X concentration in 1X ECS-Nal (same components as 1X ECS except the 140 mM NaCl was replaced by 140 mM Nal). The plates were then read on a Flexstation3 (Molecular Devices). Each well, 8 wells at a time, of the plate is read for 2 min using a Flexstation3 (Molecular Devices) as follows: 1) a baseline YFP fluorescence is read for 17 sec, 2) 100 μL of ligand is added, and 3) the changes in YFP fluorescence are then measured every 1.3 sec for 1 minute and 43 seconds. The percent quench is calculated from the average fluorescence of the last 10 seconds of the read divided by the baseline average of the first 15 seconds prior to the ligand addition.
FIGS. 1A-1J provide heat maps of the percent quench of YFP fluorescence following stimulation by various doses of either acetylcholine or the non-native ligand as indicated in the Figures. CODA71 (SEQ ID NO: 33) was used as a control, and CODA75 (SEQ ID NO: 29, a non-responding chimeric engineered receptor) was used as the negative control. Quenching of the fluorescence signal, as indicated by blue shaded cells, indicate the level of engineered receptor activation by the non-native ligand at that concentration.

B1: CODA326: engineered receptor: L131A in SEQ ID NO: 33 (protein)
chain: MRCSPGGVWLALAASLLHVSLQGEFQRKLYKELVKNYNPLERPVANDSQPLTVYFSLSLLQIMDVDEKNQVLTTNIWLQMSWTDHYLQWNVSEYPGVKTVRFPDGQIWKPDILLYNSADERFDATFHTNVAVNSSGHCQYLPPGIFKSSCPMDLKNFPMDVQTCKLKFGSWSYGGWSLDLQMQEADISGYIPNGEWDLVGIPGKRSERFYECCKEPYPDVTFTVTMRRRMGYYLIQMYIPSLLIVILSWISFWINMDAAPARVGLGITTVLTMTTQSSGSRASLPKVSYVKAIDIWMAVCLLFVFSALLEYAAVNFVSRQHKELLRFRRKRRHHKSPMLNLFQEDEAGEGRFNFSAYGMGPACLQAKDGISVKGANNSNTTNPPPAPSKSPEEMRKLFIQRAKKIDKISRIGFPMAFLIFNMFYWIIYKIVRREDVHNQ
modifications: synthetic sequence of chimeric LGIC
- YFP fluorescence quenching using CNL001 (percent quench) (1 nM CNL001, first column so headed): 76.424%
- YFP fluorescence quenching using CNL001 (percent quench) (1 nM CNL001, second column so headed): 80.567%
- YFP fluorescence quenching using TC-5619/Bradanicline (percent quench) (3 nM brd (TC-5619/Bradanicline)): 72.24%
- YFP fluorescence quenching using CNL001 (percent quench) (10 nM CNL001, first column so headed): 80.284%
- YFP fluorescence quenching using CNL001 (percent quench) (10 nM CNL001, second column so headed): 81.232%
- YFP fluorescence quenching using TC-6683 (percent quench) (30 nM TC-6683): −16.28%
- YFP fluorescence quenching using TC-5619/Bradanicline (percent quench) (30 nM brd (TC-5619/Bradanicline)): 77.4%
- YFP fluorescence quenching using CNL001 (percent quench) (50 nM CNL001, first column so headed): 81.575%
- YFP fluorescence quenching using CNL001 (percent quench) (50 nM CNL001, second column so headed): 82.544%
- YFP fluorescence quenching using ABT-126 (percent quench) (50 nM abt (ABT-126)): −21.91%
- YFP fluorescence quenching using CNL001 (percent quench) (100 nM CNL001, first column so headed): 81%
- YFP fluorescence quenching using CNL001 (percent quench) (100 nM CNL001, second column so headed): 81.718%
- YFP fluorescence quenching (percent quench) (100 nM CNL002): 27.88%
- YFP fluorescence quenching using ABT-126 (percent quench) (100 nM abt (ABT-126)): −0.5%
- YFP fluorescence quenching using AZD-0328 (percent quench) (100 nM azd0328): 80.39%
- YFP fluorescence quenching using TC-6683 (percent quench) (300 nM TC-6683): −11.73%
- YFP fluorescence quenching using ABT-126 (percent quench) (300 nM abt (ABT-126)): 34.86%
- YFP fluorescence quenching using AZD-0328 (percent quench) (300 nM azd0328): 82.07%
- YFP fluorescence quenching using TC-5619/Bradanicline (percent quench) (300 nM brd (TC-5619/Bradanicline)): 78.02%
- YFP fluorescence quenching using CNL001 (percent quench) (1 uM CNL001, first column so headed): 82.334%
- YFP fluorescence quenching using CNL001 (percent quench) (1 uM CNL001, second column so headed): 81.539%
- YFP fluorescence quenching (percent quench) (1 uM CNL002): 73.79%
- YFP fluorescence quenching using ABT-126 (percent quench) (1 uM abt (ABT-126)): 56.66%
- YFP fluorescence quenching using TC-6683 (percent quench) (3 uM TC-6683): −2.38%
- YFP fluorescence quenching (percent quench) (10 uM ach (acetylcholine)): 7.43%
- YFP fluorescence quenching (percent quench) (30 uM CNL002): 75.89%
- YFP fluorescence quenching using TC-6683 (percent quench) (30 uM TC-6683): −9.77%
- YFP fluorescence quenching using AZD-0328 (percent quench) (30 uM azd0328): 82.23%
- YFP fluorescence quenching using TC-6683 (percent quench) (100 uM TC-6683): 0.97%
- YFP fluorescence quenching (percent quench) (100 uM ach (acetylcholine)): 73.57%
- YFP fluorescence quenching (percent quench) (1 mM ach (acetylcholine)): 71.8%
- YFP fluorescence quenching (percent quench) (3 mM ach (acetylcholine)): 74.49%
- YFP fluorescence quenching using Facinicline, 30 nM fac (ligand Facinicline 30 nM): 69.94
- YFP fluorescence quenching using Facinicline, 300 nM fac (ligand Facinicline 300 nM): 80.07
- YFP fluorescence quenching using Facinicline, 30 uM fac (ligand Facinicline 30 uM): 78.32
- YFP fluorescence quenching using TC-6987, 1 uM tc6987 (ligand TC-6987 1 uM): 73.37
- YFP fluorescence quenching using TC-6987, 10 uM tc6987 (ligand TC-6987 10 uM): 78.18
- YFP fluorescence quenching using TC-6987, 500 uM tc6987 (ligand TC-6987 500 uM): 75.42
- YFP fluorescence quenching using Varenicline, 3 nM var (first column): −5.939
- YFP fluorescence quenching using Varenicline, 3 nM var (second column): −2.294
- YFP fluorescence quenching using Varenicline, 30 nM var (first column): 68.663
- YFP fluorescence quenching using Varenicline, 30 nM var (second column): 70.718
- YFP fluorescence quenching using Varenicline, 300 nM var (first column): 79.88
- YFP fluorescence quenching using Varenicline, 300 nM var (second column): 79.742
- YFP fluorescence quenching using Varenicline, 500 nM var (first column): 79.311
- YFP fluorescence quenching using Varenicline, 500 nM var (second column): 80.029
- YFP fluorescence quenching using Varenicline, 1 uM var (first column): 80.952
- YFP fluorescence quenching using Varenicline, 1 uM var (second column): 79.329

— US20250152742A1, “COMPOSITIONS AND METHODS FOR NEUROLOGICAL DISEASES” (Trames Bio, Inc., priority 2022, published 2025)
